In publication PMC6565677, “Kistamicin biosynthesis reveals the biosynthetic requirements for production of highly crosslinked glycopeptide antibiotics” (Nature Communications, 2019):

B1: Xkis-domain, standalone X-domain of the kistamicin NRPS (residues 1024-1493) (domain or fragment, UniProt A0A1V0AGC2 1024-1493, looked up)
chain: RPVLGPGRRADLDPDGPLPVTARQRRMWLLSRIGDEAEGLHVRVALRLRGRLDRDALAGALADVGGRHEILRTRFPGSRRDVRQEILDAETGRPPLEICPATEDELPGLLADRAGRPFDLTGEVPWRAHLFPLTDREQVLLVVAHRIAADEESVDVLVRDLAAAYGARREGRIPERAPLALQFADYALWERELLAGADERDSLIWDQIEFWRDRLAGGDDEHADTSAPPAGRARPVLPSRRAGSVPLRLPADSHARLLEAARSAGGTMFTAVHAALAMLLSRLDGRTSVTIGTRLPRDEEQTGLVPMVGPFSRWLALPVDLSGDPAFTEILGRARDVSEDAHRHQDLPFERLAELVVPVPSITRHPIFQVALQLDEDDVRPEESWALPGLRTSPVPMPEEAMELDLWLKLLDHRTDEGDADGLVGSLVYAEDRFDRAGAEALAQRLVALLEQVGAAPEVRLSQVDVPGSE
notes: X-domain (Oxy-recruiting domain) of the last module of the kistamicin NRPS, residues 1024-1493 of UniProt A0A1V0AGC2; Unlabelled form used for ITC and crystallisation; also called standalone Xkis domain; source: E. coli ArcticExpress, expressed as MBP fusion, purified (Ni-NTA, TEV cleavage, second Ni-NTA); not shown: His6, N-terminal, cleaved; MBP, N-terminal, cleaved
B2: OxyAkis (KisN), cytochrome P450 Oxy enzyme from kistamicin biosynthesis (enzyme)
chain: MVAPEHRVLHLRDRLDLAAELKLLCERGPLVRIPLEDGSAVHWFALGYDVVREVLGSEKFDKRVIGTHFNHQEMALPGNLLQLDPPEHTRLRRMVAPAYSVRRMQALEPRVQAIVDDHLDTMASTGPPVEFLREVAGPMAARVACEFLGIPLDDRGELIRLTAHRGGKRRRVLNGHAYLAYMRELAARLRRDPGDGMLGMVARDHGADISDEELAGLCAVVMNSSVEQTESCLAAGTLLLLEHPEQFALLRERPELGEQAVEEIVRYLSVFEGLDPRTATEDVEIGGQVIKKGEAVFCSLLAANRADPALDGFDITRKESRHVAFGHGIHHCLGAPLARMELRIAFTTLVSRFPSLRTAVPAEEIRFRPPSSNVFTLLELPLTW
notes: OxyAkis (KisN), cytochrome P450 from the kistamicin gene cluster of Actinomadura parvosata subsp. kistnae; synthetic codon-optimised gene in pET28a; Heme protein; also called kistamicin OxyA; source: E. coli ArcticExpress, purified (Ni-NTA, anion exchange, size exclusion)
B3: OxyCkis (KisO), cytochrome P450 Oxy enzyme from kistamicin biosynthesis (enzyme, UniProt A0A1V0AGL8 1-426, looked up)
chain: MTDVTPGFVVDEATQVVTPEPDFIITRKHLEPTDSLRALRKRGALLKINGHALGSLDVDGTAYIWLATGYEVVRRILGDHENFSTRRRLTAGEPIDGTGVTPVKELVGHLMNLDPPEHTRLRRMLTPEFTLRRIRRLEPVISEIIEDHLNLIEDAGPPADLQSMYAEPVGGATLCELIGVPRDDRAEFLRRCGLHLDMSRGSKRRAADSMAFNGYLDHLIGLQRKRPDDGFIGMLVQEHGDDVTDDELRGMITVVLLAGLDNISGMLGLGVLALLEHPEQIPVIFEERAVTDRAVDELTRYLSITFQPTPRMALNDVVVDGQTIKAGEIVVCSLPMANRDEALTPDPDVLDLRRQLAGHVGFGHGVHHCLGSSVSRVVLRLAYQALWRRFPDLRLAVPPEDIVFRKAITHGPKRLPVTWGPSAATR
notes: OxyCkis (KisO), cytochrome P450 from the kistamicin gene cluster of Actinomadura parvosata subsp. kistnae; synthetic codon-optimised gene in pET28a; Heme protein; also called kistamicin OxyC; source: E. coli ArcticExpress, purified (Ni-NTA, anion exchange, size exclusion)

Columns and labels:
Test in all cases: ITC; 1.27 mM X-domain injected into 300-400 µM OxyA/OxyC; 25 °C, stirring 300 rpm; 50 mM phosphate pH 7.4, 150 mM NaCl, 5% v/v glycerol; single binding site model; single titration (n = 1)
Details in all cases: both partners purified
[1] = target: B3
[2] = target: B2
[3] = target: B1

stoichiometry N [1]	stoichiometry N [2]	Kd [3] [µM]	Binder
1	1	–	B1
–	–	10.4	B2
–	–	6.1	B3
